Data on 8 molecules can be found in publication PMC7566557 (Brain Communications, 2020).

In one data set the target is Myc-(C32G)CAP2 (UniProt P40123). The data set can be described thus: proximity ligation.
Data set [1] addresses cofilin (endogenous, primary hippocampal neurons) (rat (endogenous in primary hippocampal neurons)) (UniProt P45592). The data set is described as follows: proximity ligation.
Data set [2] concerns the molecule itself. The data set is described as follows: non-reducing SDS-PAGE with Western blot. For orientation: A western blot detects proteins with antibodies after separation by electrophoresis.
Data set [3] concerns the molecule itself. The data set can be described thus: non-reducing SDS-PAGE with Western blot. The source holds these as a separate data set.

Read-outs that look alike come from different tables or passages of the source.

Sequence of cofilin (endogenous, primary hippocampal neurons) (rat (endogenous in primary hippocampal neurons)) (P45592 whole entry): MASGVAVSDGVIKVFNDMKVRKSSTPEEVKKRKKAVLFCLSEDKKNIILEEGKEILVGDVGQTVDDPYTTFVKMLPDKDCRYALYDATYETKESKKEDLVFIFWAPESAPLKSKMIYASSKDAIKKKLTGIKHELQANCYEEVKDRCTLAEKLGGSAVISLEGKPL

In the data set with Myc-(C32G)CAP2, “EGFP-CAP2 (from UniProt Q9CYT6 1-476) (natural protein)” registered a PLA clusters/μm of 0.566 clusters/μm and a PLA clusters/μm (cLTP) of 0.461 clusters/μm.
As for “Myc-(C32G)CAP2 (from UniProt P40123 1-477) (natural protein)”, in data set [1], the PLA clusters/μm amounted to 0.0144 clusters/μm and the PLA clusters/μm (cLTP) was 0.0315 clusters/μm.
In data set [1], “Myc-CAP2 (from UniProt Q9CYT6 1-476) (natural protein)” came in with a PLA clusters/μm of 0.032 clusters/μm, a PLA clusters/μm (CTRL) of 0.0317 clusters/μm and a PLA clusters/μm (cLTP) of 0.0984 clusters/μm.

B1: CAP2 (endogenous, primary hippocampal neurons) (natural protein)
chain: MADMLGLMQRLEFAVSRLERLSSGLHEPPGGCGEVNSLSRGIVAPSVEAFDKLINSMVAEFLKNSRVLAGDVETHAEMVHGAFQAQRAFLLMVSQHQQPQENEVAVLLKPISEKIQEIQTFRERNRGSDMFNHLSAVSESIAALGWIAVSPKPGPYVKEMNDAATFYTNRVLRDYKHSDLRHVDWVRSYLKIWSELQAYIKEHHTTGLTWSKTGPVASTASAFSILSSGPGLPPPPPPPPPPGPPPPFENEGGKEEPSPSRSALFAQLNQGEAITKGLRHVTDDKKIYKNPSLRAQGQIRSPTKTRTPSPTSSKSNSPQKHAPVLELEGKKWRVEYQEDRNDLVISETELKQVAYIFKCDKSTLQIKGKVNSITVDNCKKFGLVFDHVVGIVEVINSKDIQIQVMGRVPTISINKTEGCHLYLSKDALDCEIVSAKSSEMNVLVPQGDDYREFPIPEQFKTIWDGSKLITEPAEIMA
With B1, the stoichiometry N (commonly a count of units in the complex or per binding partner) in data set [2] turned out to be 2.

B2: CAP2 (endogenous, rat hippocampus) (natural protein)
chain: B1 chain
Turning to B2, the “stoichiometry N” value in data set [2] was determined as 2.

B3: CAP2 (endogenous, mouse hippocampus) (natural protein)
chain: MTDMAGLMERLERAVIRLEQLSAGLDGPPRGCGEVNGVNGGVAPSVEAFDKLINSMVAEFLKNSRVLAGDVETHAEMVHGAFQAQRAFLLMVSQYQQPQENEVAVLLKPISEKIQEIQTFRERNRGSNMFNHLSAVSESIAALGWIAVSPKPGPYVKEMNDAATFYTNRVLKDYKHSDLRHVDWVRSYLNIWSELQAYIREHHTTGLTWSKTGPVASTASAFSILSSGPGLPPPPPPPPPPGPPPPFENEDKKEEPSPSRSALFAQLNQGEAITKGLRHVTDDKKTYKNPSLRAQGQIRSPTKTHTPSPTSPKSNSPQKHTPVLELEGKKWRVEYQEDRNDLVISETELKQVAYIFKCDKSTLQIKGKVNSITVDNCKKFGLVFDHVVGIVEVINSKDIQIQVMGRVPTISINKTEGCHLYLSEDALDCEIVSAKSSEMNVLVPQDDDYREFPIPEQFKTIWDGSKLVTEPAEIMA
Consider B3, for which, in data set [2], the “stoichiometry N” value is 2.

B4: Myc-CAP2 (natural protein)
chain: B3 chain
Turning to B4, in data set [3], the “stoichiometry N” value turned out to be 2.

B5: CAP2 (endogenous, human hippocampus) (natural protein)
chain: MANMQGLVERLERAVSRLESLSAESHRPPGNCGEVNGVIAGVAPSVEAFDKLMDSMVAEFLKNSRILAGDVETHAEMVHSAFQAQRAFLLMASQYQQPHENDVAALLKPISEKIQEIQTFRERNRGSNMFNHLSAVSESIPALGWIAVSPKPGPYVKEMNDAATFYTNRVLKDYKHSDLRHVDWVKSYLNIWSELQAYIKEHHTTGLTWSKTGPVASTVSAFSVLSSGPGLPPPPPPLPPPGPPPLFENEGKKEESSPSRSALFAQLNQGEAITKGLRHVTDDQKTYKNPSLRAQGGQTQSPTKSHTPSPTSPKSYPSQKHAPVLELEGKKWRVEYQEDRNDLVISETELKQVAYIFKCEKSTIQIKGKVNSIIIDNCKKLGLVFDNVVGIVEVINSQDIQIQVMGRVPTISINKTEGCHIYLSEDALDCEIVSAKSSEMNILIPQDGDYREFPIPEQFKTAWDGSKLITEPAEIMA
In the case of B5, the “stoichiometry N” value in data set [2] amounted to 2.
